One substance from paper PMC5356265, “Increased enzymatic hydrolysis of sugarcane bagasse by a novel glucose- and xylose-stimulated β-glucosidase from Anoxybacillus flavithermus subsp. yunnanensis E13^T” (BMC Biochemistry, 2017) can be followed below.

In this data set the test system is T1, O=[N+]([O-])c1ccc(O[C@@H]2O[C@H](CO)[C@@H](O)[C@H](O)[C@H]2O)cc1.
T1 construct: full-length GH1 enzyme, no signal peptide; gene 1347 bp (448 residues deduced), 52 kDa; pET22b in E. coli BL21 (DE3), heat treatment and Ni-NTA purified
The data set can be described thus: p-nitrophenol release at A410, Lineweaver-Burk. It is filed as biochemical, Anoxybacillus flavithermus subsp. yunnanensis. As to conditions: Na2HPO4-citric acid buffer pH 7.0, 60 °C, no added sugar.

With “BglP (Bglp) (Anoxybacillus flavithermus subsp. yunnanensis)”, the Michaelis constant (Km) (in general, the substrate concentration at which the rate is half of its maximum) was 290 ± 10 µM.
